Our source for the EC50 values is US20240392020A1 (JIANGSU HENGRUI PHARMACEUTICALS, published 2024).

The labels stand for the following.
T1: hP40 (human, UniProt P29460 23-328)
T1 construct: bought
T1 sequence (looked up): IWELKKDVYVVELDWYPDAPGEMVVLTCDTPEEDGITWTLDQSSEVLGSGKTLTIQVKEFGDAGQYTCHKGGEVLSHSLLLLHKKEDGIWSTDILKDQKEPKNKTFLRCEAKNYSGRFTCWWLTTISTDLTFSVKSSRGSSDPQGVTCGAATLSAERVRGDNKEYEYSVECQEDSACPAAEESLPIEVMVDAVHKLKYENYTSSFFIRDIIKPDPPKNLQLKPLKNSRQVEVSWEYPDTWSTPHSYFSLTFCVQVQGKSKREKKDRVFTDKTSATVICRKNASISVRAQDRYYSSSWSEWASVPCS

B1: I2 (antibody)
heavy: not shown
light: DIQMTQSPSSLSASVGDRVTITCRASQSISNNLNWYQQKPGKAPKLLIYYTSRFHSGVPSRFSGSGSGTDFTFTISSLQPEDIATYYCQQEHTLPYTFGQGTKLEIKSGAPRFLTRPKSYTVSVGKDASLSSQIVGNPTPQVSWEKDQQPVAAGARFRLAQDGDLYRLKILDLALGDSGQYVSRARNAIGEAFACVGLQVDAEA
B2: I3 (antibody)
heavy: not shown
light: B1 light with K118L, S119A, Y120F, T121V, S129T, Q148K, A152T, A174Q, G176S, V196L
B3: I6 (antibody)
heavy: not shown
light: DIQMTQSPSSLSASVGDRVTITCRASQSISNNLNWYQQKPGKAPKLLIYYTSRFHSGVPSRFSGSGSGTDFTFTISSLQPEDIATYYCQQEHTLPYTFGQGTKLEIKSGAPRFLTRPLAFVVSVGKDATLSSQIVGNPTPQVSWEKDQLPVTAGARFRLAQDGDLYRLKILDLTLSDSGQYVSRARNAIGEAFACVGLEVGAEA
B4: I7 (antibody)
heavy: not shown
light: B3 light with A119S, F120Y, T129S, T174Q
B5: I4 (antibody)
heavy: not shown
light: B3 light
B6: I5 (antibody)
heavy: not shown
light: B3 light
B7: U8 (antibody)
heavy: not shown
light: DIQMTQSPSSLSASVGDRVTITCRASQGISSWLAWYQQKPEKAPKSLIYAASSLQSGVPSRFSGSGSGTDFTLTISSLQPEDFATYYCQQYNIYPYTFGQGTKLEIKSGAPRFLTRPLSYVVSVGKDASLSSQIVGNPTPQVSWEKDQLPVTAGARFRLAQDGDLYRLKILDLQLSDSGQYVSRARNAIGEAFACVGLEVGAEA
B8: U2 (antibody)
heavy: not shown
light: B7 light with L118K, V121T, L149Q, T152A, Q174A, S176G, E199Q, G201D
B9: U4 (antibody)
heavy: not shown
light: B7 light with S119A, Y120F, S129T, Q148K, L149Q, V196L, E199Q, G201D
B10: U3 (antibody)
heavy: not shown
light: DIQMTQSPSSLSASVGDRVTITCRASQGISSWLAWYQQKPEKAPKSLIYAASSLQSGVPSRFSGSGSGTDFTLTISSLQPEDFATYYCQQYNIYPYTFGQGTKLEIKSEAPRFLTRPLAFVVSEGKDATLSSQIVGDPPPEVTWEKDQQPITAGARFRLAQDGDVYRLEILDLQLSDSGQYVSRARNAIGEAFACVGLQVDAEG
B11: HJ-3 (bispecific antibody, human IgG1, kappa, L234A L235A)
heavy 1: not shown
light 1: DIQMTQSPSSVSASVGDRVTITCRASQDIANYLSWYQQKPGKSPKLLIYGTSNLEVGVPSRFSGSRSGTDFTLTISSLQPEDFATYYCLQDKEFPRTFGGGTKVEIKGGGGSSGAPRFLTRPLAFVVSVGKDATLSSQIVGNPTPQVSWEKDKQPVTAGARFRLAQDGDLYRLKILDLQLSDSGQYVSRARNAIGEAFACLGLQVDAEA
heavy 2: EVQLVQSGAEVKKPGSSVKVSCKASGYTFSNYLIEWVRQAPGQGLEWIGVIDPGVGDTNYNENFKGRATLTADKSTSTAYIELSSLRSEDTAVYYCAREDNTGTAFDYWGQGTTVTVSSASTKGPSVFPLAPSSKSTSGGTAALGCLVKDYFPEPVTVSWNSGALTSGVHTFPAVLQSSGLYSLSSVVTVPSSSLGTQTYICNVNHKPSNTKVDKKVEPKSCDKTHTCPPCPAPEAAGGPSVFLFPPKPKDTLMISRTPEVTCVVVDVSHEDPEVKFNWYVDGVEVHNAKTKPREEQYNSTYRVVSVLTVLHQDWLNGKEYKCKVSNKALPAPIEKTISKAKGQPREPQVCTLPPSREEMTKNQVSLSCAVKGFYPSDIAVEWESNGQPENNYKTTPPVLDSDGSFFLVSKLTVDKSRWQQGNVFSCSVMHEALHNHYTQKSLSLSPGKDYKDDDDK
light 2: SIVMTQTPLSLSVTPGQPASISCKASQSVSSDVTWYLQKPGQSPQLLIYYVSEHYTGVPDRFSGSGYGTDFTLKISRVEAEDVGVYYCQQHHRFPLTFGQGTKLEIKRTVAAPSVFIFPPSDEQLKSGTASVVCLLNNFYPREAKVQWKVDNALQSGNSQESVTEQDSKDSTYSLSSTLTLSKADYEKHKVYACEVTHQGLSSPVTKSFNRGEC
B12: HJ-8 (bispecific antibody, human IgG1, kappa, L234A L235A)
heavy 1: not shown
light 1: B11 light 1 with G108R, G109T, G110V, G111A, L123K, F125S, T144F, A160V, I194H
heavy 2: EVQLVQSGAEVKKPGSSVKVSCKASGYTFSNYLIEWVRQAPGQGLEWIGVIDPGVGDTNYNENFKGRATLTADKSTSTAYIELSSLRSEDTAVYYCAREDNTGTAFDYWGQGTTVTVSSASTKGPSVFPLAPSSKSTSGGTAALGCLVKDYFPEPVTVSWNSGALTSGVHTFPAVLQSSGLYSLSSVVTVPSSSLGTQTYICNVNHKPSNTKVDKKVEPKSCDKTHTCPPCPAPEAAGGPSVFLFPPKPKDTLMISRTPEVTCVVVDVSHEDPEVKFNWYVDGVEVHNAKTKPREEQYNSTYRVVSVLTVLHQDWLNGKEYKCKVSNKALPAPIEKTISKAKGQPREPQVCTLPPSREEMTKNQVSLSCAVKGFYPSDIAVEWESNGQPENNYKTTPPVLDSDGSFFLVSKLTVDKSRWQQGNVFSCSVMHEALHNHYTQKSLSLSPGK
light 2: B11 light 2
B13: HJ-9 (bispecific antibody, human IgG1, kappa, L234A L235A)
heavy 1: not shown
light 1: B11 light 1 with G108R, G109T, G110V, G111A, R121C, L123K, F125S, T144F, A160V, I194H
heavy 2: B12 heavy 2
light 2: B11 light 2
B14: HJ-10 (bispecific antibody, human IgG1, kappa, L234A L235A)
heavy 1: not shown
light 1: DIQMTQSPSSVSASVGDRVTITCRASQDIANYLSWYQQKPGKSPKLLIYGTSNLEVGVPSRFSGSRSGTDFTLTISSLQPEDFATYYCLQDKEFPRTFGGGTKVEIKRTVASSGAPRFLTRPKASVVSVGKDATLSCQIVGNPFPQVSWEKDKQPVTAGVRFRLAQDGDLYRLKILDLQLSDSGQYVCRARNAHGEAFACLGLQVDAEA
heavy 2: B12 heavy 2
light 2: B11 light 2
B15: HJ-6 (bispecific antibody, human IgG1, kappa, L234A L235A)
heavy 1: not shown
light 1: B11 light 1 with R121C, L123K, F125S, T144F, A160V, I194H
heavy 2: B12 heavy 2
light 2: B11 light 2
B16: HJ-7 (bispecific antibody, human IgG1, kappa, L234A L235A)
heavy 1: not shown
light 1: B14 light 1 with R108G, T109G, V110G, A111G
heavy 2: B12 heavy 2
light 2: B11 light 2
B17: HJ-11 (bispecific antibody, human IgG1, kappa, L234A L235A)
heavy 1: not shown
light 1: B14 light 1 with A115C
heavy 2: B12 heavy 2
light 2: B11 light 2
B18: HJ-5 (bispecific antibody, human IgG1, kappa, L234A L235A)
heavy 1: not shown
light 1: B11 light 1 with L123K, F125S, T144F, A160V, I194H
heavy 2: B12 heavy 2
light 2: B11 light 2

Residue numbers refer to the chain shown, from its start.

By EC50 is commonly meant the midpoint of the concentration-response curve.

The first assay deals with T2, hNGF (human, UniProt P01138 122-241, limits assumed).
T2 construct: bought
T2 sequence (P01138 122-241 limits assumed): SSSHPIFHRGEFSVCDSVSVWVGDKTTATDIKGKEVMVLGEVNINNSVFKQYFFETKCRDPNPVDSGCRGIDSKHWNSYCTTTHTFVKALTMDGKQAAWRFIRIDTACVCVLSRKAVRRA
As to the kind of experiment: ELISA.
Method: (§1) For an antibody targeting a soluble protein, the binding activity of the antibody against the soluble protein was detected by ELISA. […] After the blocking was completed, the blocking solution was discarded; and the plate was washed 3 times with a PBST buffer (pH 7.4, PBS containing 0.1% tween-20). 100 μL of the antibody solution diluted in a gradient was added to each well, and the mixture was incubated at 37° C. for 1 h. After the incubation was completed, the plate was washed 3 times with PBST. […] The plate was washed 3 times with PBST. […] The reaction was stopped by adding 50 μL of 1 M H₂SO₄ to each well. The absorbance values at 450 nm were read on a microplate reader, the binding curves of the antibodies to an antigen were fitted with software, and the EC₅₀ values were calculated.
As for B1, the EC50 is 3.19 nM. Molecule B2 showed an EC50 of 2.99 nM. This EC50 and that of the molecule before are within 1.5-fold of each other. Consider B3, for which the EC50 was 4.12 nM. On the same count and under the same terms, as for B4, the figure is 3.15 nM. Still for that read-out and setting: to B5 belongs 4.13 nM; to B6, 3.59 nM.

Another assay has as its target T1, hP40. As to the kind of experiment: ELISA. (In general: In an ELISA, binding on a coated surface is turned into a signal by an enzyme label.)
Method: as §1
In turn, B7 displayed an EC50 of 0.16 nM. On the same count and under the same terms, as for B8, the figure is 0.07 nM; as for B9, 0.06 nM; as for B10, 0.02 nM.

The next assay concerns the target T3, hIL-5 (human, UniProt P05113 20-134).
T3 construct: bought
Nature of the assay: ELISA.
Method: (§2) For an antibody targeting a soluble protein, the binding activity of the antibody against the soluble protein was detected by ELISA. […] After the blocking was completed, the blocking solution was discarded; and the plate was washed 3 times with a PBST buffer (pH 7.4, PBS containing 0.1% tween-20). 100 μL of the antibody solution diluted in a gradient was added to each well, and the mixture was incubated at 37° C. for 1 h. After the incubation was completed, the plate was washed 3 times with PBST.
For the molecule B11, the EC50 was determined as 17.4 nM.

Take B12: the EC50 is 18.7 nM. The EC50 values of the last two molecules are within 1.5-fold of each other. Same read-out and setting: to B13 belongs 10.9 nM. B14 registered an EC50 of 20.8 nM. The same measure, in the same setting: to B15 belongs 37 nM. Still for that read-out and setting: as for B16, the figure is 17.7 nM; as for B17, 9.46 nM; as for B18, 16 nM.

The next assay concerns the target T4, hTSLP (human, UniProt Q969D9 29-159).
T4 construct: bought
As to the kind of experiment: ELISA.
Method: as §2
On to B11, for which the EC50 is 3.23 nM. With B12, the EC50 came to 3.33 nM. In turn, B13 had an EC50 of 3.18 nM. B14 gave a 50% effective concentration (EC50) of 3.17 nM. The molecule B15 came in with an EC50 of 2.88 nM. Still for that read-out and setting: to B16 belongs 2.18 nM; to B17, 3 nM. Still for that read-out and setting: to B18 belongs 2.64 nM.
